# Test system: mouse GPV with point mutation R476A in the thrombin cleavage site (Gp5^dThr platelets)
# Sequence (chain, as listed by the source R476A): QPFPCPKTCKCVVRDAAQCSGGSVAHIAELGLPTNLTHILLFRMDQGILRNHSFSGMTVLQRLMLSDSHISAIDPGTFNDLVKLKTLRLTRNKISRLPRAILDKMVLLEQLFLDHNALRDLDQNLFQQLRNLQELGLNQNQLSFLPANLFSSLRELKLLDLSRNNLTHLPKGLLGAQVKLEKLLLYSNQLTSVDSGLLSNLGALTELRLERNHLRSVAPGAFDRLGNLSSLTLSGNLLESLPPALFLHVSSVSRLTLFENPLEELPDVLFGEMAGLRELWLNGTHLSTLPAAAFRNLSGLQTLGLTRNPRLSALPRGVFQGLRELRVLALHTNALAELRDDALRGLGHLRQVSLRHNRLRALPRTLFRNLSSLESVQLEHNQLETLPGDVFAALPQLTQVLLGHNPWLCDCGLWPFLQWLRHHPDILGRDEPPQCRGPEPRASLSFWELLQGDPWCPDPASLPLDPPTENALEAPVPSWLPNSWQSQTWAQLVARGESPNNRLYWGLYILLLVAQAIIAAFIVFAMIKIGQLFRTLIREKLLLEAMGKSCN
substance,measurement,value
"human thrombin (Roche, Sigma-Aldrich #10602400001)","cleavage of GPV by thrombin (sGPV ELISA, flow cytometry)",GPV was completely resistant to cleavage by thrombin

# Reference: patent US20260217861
